Laboratory results from US20250215059A1 (REGENTS OF THE UNIVERSITY OF COLORADO A BODY CORPORATE, published 2025).

B1: 42-polyserine-TNPO3-halo (other)
chain: MEGAKPTLQLVYQAVQALYHDPDPSGKERASFWLGELQRSVHAWEISDQLLQIRQDVESCYFAAQTMKMKIQTSFYELPTDSHASLRDSLLTHIQNLKDLSPVIVTQLALAIADLALQMPSWKGCVQTLVEKYSNDVTSLPFLLEILTVLPEEVHSRSLRIGANRRTEIIEDLAFYSSTVVSLLMTCVEKAGTDEKMLMKVFRCLGSWFNLGVLDSNFMANNKLLALLFEVLQQDKTSSNLHEAASDCVCSALYAIENVETNLPLAMQLFQGVLTLETAYHMAVAREDLDKVLNYCRIFTELCETFLEKIVCTPGQGLGDLRTLELLLICAGHPQYEVVEISFNFWYRLGEHLYKTNDEVIHGIFKAYIQRLLHALARHCQLEPDHEGVPEETDDFGEFRMRVSDLVKDLIFLIGSMECFAQLYSTLKEGNPPWEVTEAVLFIMAAIAKSVDPENNPTLVEVLEGVVRLPETVHTAVRYTSIELVGEMSEVVDRNPQFLDPVLGYLMKGLCEKPLASAAAKAIHNICSVCRDHMAQHFNGLLEIARSLDSFLLSPEAAVGLLKGTALVLARLPLDKITECLSELCSVQVMALKKLLSQEPSNGISSDPTVFLDRLAVIFRHTNPIVENGQTHPCQKVIQEIWPVLSETLNKHRADNRIVERCCRCLRFAVRCVGKGSAALLQPLVTQMVNVYHVHQHSCFLYLGSILVDEYGMEEGCRQGLLDMLQALCIPTFQLLEQQNGLQNHPDTVDDLFRLATRFIQRSPVTLLRSQVVIPILQWAIASTTLDHRDANCSVMRFLRDLIHTGVANDHEEDFELRKELIGQVMNQLGQQLVSQLLHTCCFCLPPYTLPDVAEVLWEIMQVDRPTFCRWLENSLKGLPKETTVGAVTVTHKQLTDFHKQVTSAEECKQVCWALRDFTRLFRGTELGSTSPVWWNSADISSSSSSSSSSSSSSSSSSSSSSSSSSSSSSSSSSSSSSSSSSGGSGGSGGGSEIGTGFPFDPHYVEVLGERMHYVDVGPRDGTPVLFLHGNPTSSYVWRNIIPHVAPTHRCIAPDLIGMGKSDKPDLGYFFDDHVRFMDAFIEALGLEEVVLVIHDWGSALGFHWAKRNPERVKGIAFMEFIRPIPTWDEWPEFARETFQAFRTTDVGRKLIIDQNVFIEGTLPMGVVRPLTEVEMDHYREPFLNPVDREPLWRFPNELPIAGEPANIVALVEEYMDWLHQSPVPKLLFWGTPGVLIPPAEAARLAKSLPNCKAVDIGPGLNLLQEDNPDLIGSEIARWLSTLEISG
B2: SRRM2_7-Halo (other)
chain: MYNGIGLPTPRGSGTNGYVQRNLSLVRGRRGERPDYKGEEELRRLEAALVKRPNPDILDHERKRRVELRCLELEEMMEEQGYEEQQIQEKVATFRLMLLEKDVNPGGKEETPGQRPAVTETHQLAELNEKKNERLRAAFGISDSYVDGSSFDPQRRAREAKQPAPEPPKPYSLVRESSSSRSPTPKQKKKKKKKDRGRRSESSSPRRERKKSSKKKKHRSESESKKRKHRSPTPKSKRKSKDKKRKRSRSTTPAPKSRRAHRSTSADSASSSDTSRSRSRSAAAKTHTTALAGRSPSPASGRRGEGDAPFSEPGTTSTQRPSSPETATKQPSSPYEDKDKDKKEKSATRPSPSPERSSTGPEPPAPTPLLAERHGGSPQPLATTPLSQEPVNPPSEASPTRDRSPPKSPEKLPQSSSSESSPPSPQPTKVMAEIGTGFPFDPHYVEVLGERMHYVDVGPRDGTPVLFLHGNPTSSYVWRNIIPHVAPTHRCIAPDLIGMGKSDKPDLGYFFDDHVRFMDAFIEALGLEEVVLVIHDWGSALGFHWAKRNPERVKGIAFMEFIRPIPTWDEWPEFARETFQAFRTTDVGRKLIIDQNVFIEGTLPMGVVRPLTEVEMDHYREPFLNPVDREPLWRFPNELPIAGEPANIVALVEEYMDWLHQSPVPKLLFWGTPGVLIPPAEAARLAKSLPNCKAVDIGPGLNLLQEDNPDLIGSEIARWLSTLEISG
modifications: JF646 Halo ligand covalently bound to the Halo tag
notes: also called truncation 7
B3: SRRM2_4-Halo (other)
chain: MYNGIGLPTPRGSGTNGYVQRNLSLVRGRRGERPDYKGEEELRRLEAALVKRPNPDILDHERKRRVELRCLELEEMMEEQGYEEQQIQEKVATFRLMLLEKDVNPGGKEETPGQRPAVTETHQLAELNEKKNERLRAAFGISDSYVDGSSFDPQRRAREAKQPAPEPPKPYSLVRESSSSRSPTPKQKKKKKKKDRGRRSESSSPRRERKKSSKKKKHRSESESKKRKHRSPTPKSKRKSKDKKRKRSRSTTPAPKSRRAHRSTSADSASSSDTSRSRSRSAAAKTHTTALAGRSPSPASGRRGEGDAPFSEPGTTSTQRPSSPETATKQPSSPYEDKDKDKKEKSATRPSPSPERSSTGPEPPAPTPLLAERHGGSPQPLATTPLSQEPVNPPSEASPTRDRSPPKSPEKLPQSSSSESSPPSPQPTKVSRHASSSPESPKPAPAPGSHREISSSPTSKNRSHGRAKRDKSHSHTPSRRMGRSRSPATAKRGRSRSRTPTKRGHSRSRSPQWRRSRSAQRWGRSRSPQRRGRSRSPQRPGWSRSRNTQRRGRSRSARRGRSHSRSPATRGRSRSRTPARRGRSRSRTPARRRSRSRTPTRRRSRSRTPARRGRSRSRTPARRRSRTRSPVRRRSRSRSPARRSGRSRSRTPARRGRSRSRTPARRGRSRSRTPARRSGRSRSRTPARRGRSRSRTPRRGRSRSRSLVRRGRSHSRTPQRRGRSGSSSERKNKSRTSQRRSRSNSSPEMKKSRISSRRSRSLSSPRSKAKSRLSLRRSLSGSSPCPKQKSQTPPRRSRSGSSQPKAKSRTPPRRSRSSSSPPPKQKSKTPSRQSHSSSSPHPKVKSGTPPRQGSITSPQANEQSVTPQRRSCFESSPDPELKSRTPSRHSCSGSSPPRVKSSTPPRQSPSRSSSPQPKVKAIISPRQRSHSGSSSPSPSRVTSRTTPRRSRSVSPCSNVESRLLPRYSHSGSSSPDTKVKPETPPRQSHSGSISPYPKVKAQTPPGPSLSGSKSPCPQEKSKDSLVQSCPGSLSLCAGVKSSTPPGESYFGVSSLQLKGQSQTSPDHRSDTSSPEVRQSHSESPSLQSKSQTSPKGGRSRSSSPVTELASRSPIRQDRGEFSASPMLKSGMSPEQSRFQSDSSSYPTVDSNSLLGQSRLETAESKEKMALPPQEDATASPPRQKDKFSPFPVQDRPESSLVFKDTLRTPPRERSGAGSSPETKEQNSALPTSSQDEELMEVVEKSEEPAGQILSHLSSELKEMSTSNFESSPEVEERPAVSLTLDQSQSQASLEAVEVPSMASSWGGPHFSPEHKELSNSPLRENSFGSPLEFRNSGPLGTEMNTGFSSEVKEDLNGPFMAEIGTGFPFDPHYVEVLGERMHYVDVGPRDGTPVLFLHGNPTSSYVWRNIIPHVAPTHRCIAPDLIGMGKSDKPDLGYFFDDHVRFMDAFIEALGLEEVVLVIHDWGSALGFHWAKRNPERVKGIAFMEFIRPIPTWDEWPEFARETFQAFRTTDVGRKLIIDQNVFIEGTLPMGVVRPLTEVEMDHYREPFLNPVDREPLWRFPNELPIAGEPANIVALVEEYMDWLHQSPVPKLLFWGTPGVLIPPAEAARLAKSLPNCKAVDIGPGLNLLQEDNPDLIGSEIARWLSTLEISG
modifications: JF646 Halo ligand covalently bound to the Halo tag
notes: also called truncation 4
B4: SRRM2_5-Halo (other)
chain: MYNGIGLPTPRGSGTNGYVQRNLSLVRGRRGERPDYKGEEELRRLEAALVKRPNPDILDHERKRRVELRCLELEEMMEEQGYEEQQIQEKVATFRLMLLEKDVNPGGKEETPGQRPAVTETHQLAELNEKKNERLRAAFGISDSYVDGSSFDPQRRAREAKQPAPEPPKPYSLVRESSSSRSPTPKQKKKKKKKDRGRRSESSSPRRERKKSSKKKKHRSESESKKRKHRSPTPKSKRKSKDKKRKRSRSTTPAPKSRRAHRSTSADSASSSDTSRSRSRSAAAKTHTTALAGRSPSPASGRRGEGDAPFSEPGTTSTQRPSSPETATKQPSSPYEDKDKDKKEKSATRPSPSPERSSTGPEPPAPTPLLAERHGGSPQPLATTPLSQEPVNPPSEASPTRDRSPPKSPEKLPQSSSSESSPPSPQPTKVSRHASSSPESPKPAPAPGSHREISSSPTSKNRSHGRAKRDKSHSHTPSRRMGRSRSPATAKRGRSRSRTPTKRGHSRSRSPQWRRSRSAQRWGRSRSPQRRGRSRSPQRPGWSRSRNTQRRGRSRSARRGRSHSRSPATRGRSRSRTPARRGRSRSRTPARRRSRSRTPTRRRSRSRTPARRGRSRSRTPARRRSRTRSPVRRRSRSRSPARRSGRSRSRTPARRGRSRSRTPARRGRSRSRTPARRSGRSRSRTPARRGRSRSRTPRRGRSRSRSLVRRGRSHSRTPQRRGRSGSSSERKNKSRTSQRRSRSNSSPEMKKSRISSRRSRSLSSPRSKAKSRLSLRRSLSGSSPCPKQKSQTPPRRSRSGSSQPKMAEIGTGFPFDPHYVEVLGERMHYVDVGPRDGTPVLFLHGNPTSSYVWRNIIPHVAPTHRCIAPDLIGMGKSDKPDLGYFFDDHVRFMDAFIEALGLEEVVLVIHDWGSALGFHWAKRNPERVKGIAFMEFIRPIPTWDEWPEFARETFQAFRTTDVGRKLIIDQNVFIEGTLPMGVVRPLTEVEMDHYREPFLNPVDREPLWRFPNELPIAGEPANIVALVEEYMDWLHQSPVPKLLFWGTPGVLIPPAEAARLAKSLPNCKAVDIGPGLNLLQEDNPDLIGSEIARWLSTLEISG
modifications: JF646 Halo ligand covalently bound to the Halo tag
notes: also called truncation 5
B5: SRRM2_6-Halo (other)
chain: MYNGIGLPTPRGSGTNGYVQRNLSLVRGRRGERPDYKGEEELRRLEAALVKRPNPDILDHERKRRVELRCLELEEMMEEQGYEEQQIQEKVATFRLMLLEKDVNPGGKEETPGQRPAVTETHQLAELNEKKNERLRAAFGISDSYVDGSSFDPQRRAREAKQPAPEPPKPYSLVRESSSSRSPTPKQKKKKKKKDRGRRSESSSPRRERKKSSKKKKHRSESESKKRKHRSPTPKSKRKSKDKKRKRSRSTTPAPKSRRAHRSTSADSASSSDTSRSRSRSAAAKTHTTALAGRSPSPASGRRGEGDAPFSEPGTTSTQRPSSPETATKQPSSPYEDKDKDKKEKSATRPSPSPERSSTGPEPPAPTPLLAERHGGSPQPLATTPLSQEPVNPPSEASPTRDRSPPKSPEKLPQSSSSESSPPSPQPTKVSRHASSSPESPKPAPAPGSHREISSSPTSKNRSHGRAKRDKSHSHTPSRRMGRSRSPATAKRGRSRSRTPTKRGHSRSRSPQWRRSRSAQRWGRSRSPQRRGRSRSPQRPGWSRSRNTQRRGRSRSARMAEIGTGFPFDPHYVEVLGERMHYVDVGPRDGTPVLFLHGNPTSSYVWRNIIPHVAPTHRCIAPDLIGMGKSDKPDLGYFFDDHVRFMDAFIEALGLEEVVLVIHDWGSALGFHWAKRNPERVKGIAFMEFIRPIPTWDEWPEFARETFQAFRTTDVGRKLIIDQNVFIEGTLPMGVVRPLTEVEMDHYREPFLNPVDREPLWRFPNELPIAGEPANIVALVEEYMDWLHQSPVPKLLFWGTPGVLIPPAEAARLAKSLPNCKAVDIGPGLNLLQEDNPDLIGSEIARWLSTLEISG
modifications: JF646 Halo ligand covalently bound to the Halo tag
notes: also called truncation 6

Assays:
[1] = target: T1, tau aggregates in HEK293 tau biosensor cells (4R repeat domain of tau (K18) with the P301S mutation fused to … (UniProt P10636-8 244-372)); experiment: cell-based or functional assay
T1 sequence (P10636 561-689 P618S): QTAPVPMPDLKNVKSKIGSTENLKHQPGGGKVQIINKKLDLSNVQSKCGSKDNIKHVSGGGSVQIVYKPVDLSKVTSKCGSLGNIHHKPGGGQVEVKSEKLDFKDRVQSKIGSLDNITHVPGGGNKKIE

[2] = target: T1, tau aggregates in HEK293 tau biosensor …; experiment: Halo (JF646) imaging in seeded HEK293 tau biosensor cells

Binder	tau aggregation by flow cytometry (FRET+ cells and integrated FRET density, normalized to no insert Halo) [1]	binding result [2]
B1	~50 % decrease	–
B2	–	no binding
B3	–	no binding
B4	–	no binding
B5	–	no binding
